Molecular target: T1, His-PABPC1 (UniProt P11940 1-636)
T1 construct: also called purified His-PABPC1; source: E. coli BL21 (pET28a), purified with nickel-nitrilotriacetic acid beads
Assay: pull-down; purified GST-tagged EWS fragment on glutathione magnetic beads; purified His-tagged protein (PABPC1 or ERG) added, no third protein; immunoblot
Conditions: both partners purified

T1 sequence (P11940 whole entry): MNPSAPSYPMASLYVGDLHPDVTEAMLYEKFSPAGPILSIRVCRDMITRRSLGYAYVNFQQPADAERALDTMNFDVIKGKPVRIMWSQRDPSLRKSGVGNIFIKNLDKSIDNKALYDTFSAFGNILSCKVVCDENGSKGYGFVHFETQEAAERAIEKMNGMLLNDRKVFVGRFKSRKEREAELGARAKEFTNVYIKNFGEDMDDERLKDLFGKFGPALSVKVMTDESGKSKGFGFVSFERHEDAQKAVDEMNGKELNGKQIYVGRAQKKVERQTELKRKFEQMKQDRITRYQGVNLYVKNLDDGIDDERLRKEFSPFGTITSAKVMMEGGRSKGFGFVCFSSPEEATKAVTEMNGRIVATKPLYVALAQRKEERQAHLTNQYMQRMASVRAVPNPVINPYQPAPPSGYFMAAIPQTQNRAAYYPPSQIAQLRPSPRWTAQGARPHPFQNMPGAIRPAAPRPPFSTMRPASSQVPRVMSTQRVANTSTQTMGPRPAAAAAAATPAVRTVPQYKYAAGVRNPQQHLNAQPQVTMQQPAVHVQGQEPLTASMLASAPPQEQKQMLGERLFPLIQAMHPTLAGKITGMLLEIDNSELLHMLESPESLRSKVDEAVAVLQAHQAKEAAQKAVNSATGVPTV

binding result: binds
B1: GST-EWS 356 to 656 (ctEWS) (domain or fragment, UniProt Q01844 356-656, looked up)
chain: EDSDNSAIYVQGLNDSVTLDDLADFFKQCGVVKMNKRTGQPMIHIYLDKETGKPKGDATVSYEDPPTAKAAVEWFDGKDFQGSKLKVSLARKKPPMNSMRGGLPPREGRGMPPPLRGGPGGPGGPGGPMGRMGGRGGDRGGFPPRGPRGSRGNPSGGGNVQHRAGDWQCPNPGCGNQNFAWRTECNQCKAPKPEGFLPPPFPPPGGDRGRGGPGGMRGGRGGLMDRGGPGGMFRGGRGGDRGGFRGGRGMDRGGFGGGRRGGPGGPPGPLMEQMGGRRGGRGGPGKMDKGEHRQERRDRPY
notes: also called GST-ctEWS; C terminus of EWS; source: E. coli BL21 (pGEX-6p-2), purified with magnetic GSH beads
